Measurements from publication PMC5113044, “Characterisation of a New Family of Carboxyl Esterases with an OsmC Domain” (PLoS ONE, 2016).

Tests used:
ΔEstLA = biological target: T1, ΔEstLA (Roseibium aggregatum, UniProt A0NLQ8); test: […] min end-point 4-nitrophenol release, […] nm; format: biochemical; conditions: 1.5 mM substrate, gum arabic, universal buffer pH 5-11, 30 °C, or Tris-HCl pH 8.5, 5-50 °C
T1 construct: gene SIAM614_09253; N-terminal His6 (pDEST17), E. coli BL21-AI
T1 sequence (A0NLQ8 1-266): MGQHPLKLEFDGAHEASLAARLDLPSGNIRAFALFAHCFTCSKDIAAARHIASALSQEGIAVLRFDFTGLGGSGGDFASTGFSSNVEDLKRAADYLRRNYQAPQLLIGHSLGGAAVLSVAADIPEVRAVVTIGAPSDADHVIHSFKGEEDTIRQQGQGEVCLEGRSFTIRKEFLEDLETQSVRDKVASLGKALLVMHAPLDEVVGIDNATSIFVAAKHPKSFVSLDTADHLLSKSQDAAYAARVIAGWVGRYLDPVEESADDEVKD

ΔEstRD = biological target: T2, ΔEstRD (Roseobacter denitrificans, UniProt Q166H3); test: […] min end-point 4-nitrophenol release, […] nm; format: biochemical; conditions: 1.5 mM substrate
T2 construct: gene RD1_2563; C-terminal His6 (pEXP5-CT), E. coli BL21-AI

ΔEstCAL = biological target: T3, ΔEstCAL (Cellulophaga algicola, UniProt E6X8P4); test: […] min end-point 4-nitrophenol release, […] nm; format: biochemical; conditions: 1.5 mM substrate, gum arabic, universal buffer pH 5-11, 30 °C, or Tris-HCl pH 8.5, 5-50 °C
T3 construct: gene Celal_0286; C-terminal His6 (pEXP5-CT), E. coli BL21-AI

ΔEstO = biological target: T4, ΔEstO (Pseudoalteromonas arctica, UniProt D6CHH1); test: […] min end-point 4-nitrophenol release, […] nm; format: biochemical; conditions: 1.5 mM substrate
T4 construct: gene estO; N-terminal His6 (pDEST17), E. coli BL21-AI

ΔEstCA = biological target: T5, ΔEstCA (Catenulispora acidiphila, UniProt C7Q579); test: […] min end-point 4-nitrophenol release, […] nm; format: biochemical; conditions: 1.5 mM substrate, gum arabic, universal buffer pH 5-11, 30 °C, or Tris-HCl pH 8.5, 5-50 °C
T5 construct: gene Caci_7018; C-terminal His6 (pEXP5-CT), E. coli BL21-AI
T5 sequence (C7Q579 1-255): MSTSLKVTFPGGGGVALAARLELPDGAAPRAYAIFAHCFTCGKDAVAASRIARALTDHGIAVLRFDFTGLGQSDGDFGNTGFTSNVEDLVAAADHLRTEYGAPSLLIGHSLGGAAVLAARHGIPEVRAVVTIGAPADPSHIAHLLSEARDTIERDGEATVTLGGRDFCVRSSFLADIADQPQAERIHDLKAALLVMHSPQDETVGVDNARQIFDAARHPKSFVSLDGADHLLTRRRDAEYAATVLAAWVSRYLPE

ΔEstEM = biological target: T6, ΔEstEM (Sinorhizobium meliloti, UniProt Q92Y44); test: […] min end-point 4-nitrophenol release, […] nm; format: biochemical; conditions: 1.5 mM substrate
T6 construct: gene SMa1898; N-terminal His6 (pDEST17), E. coli BL21-AI

purified protein [1] = substrate: CCCC(=O)Oc1ccc([N+](=O)[O-])cc1; test: purified protein; format: biochemical, Rhodothermus marinus; conditions: 25 mM Tris-HCl pH 8.5, 5% acetonitrile, 0.5% Triton X-100
purified protein [2] = substrate: CCCCCCCC(=O)Oc1ccc([N+](=O)[O-])cc1; test: purified protein; format: biochemical, Rhodothermus marinus; conditions: 25 mM Tris-HCl pH 8.5, 5% acetonitrile, 0.5% Triton X-100
purified protein [3] = substrate: CCCCCCCCCCCC(=O)Oc1ccc([N+](=O)[O-])cc1; test: purified protein; format: biochemical, Rhodothermus marinus; conditions: 25 mM Tris-HCl pH 8.5, 5% acetonitrile, 0.5% Triton X-100
purified protein [4] = substrate: CC(=O)Oc1ccc([N+](=O)[O-])cc1; test: purified protein; format: biochemical, Rhodothermus marinus; conditions: 25 mM Tris-HCl pH 8.5, 5% acetonitrile, 0.5% Triton X-100
purified protein [5] = substrate: O=C(Oc1ccc([N+](=O)[O-])cc1)c1ccccc1; test: purified protein; format: biochemical, Rhodothermus marinus; conditions: 25 mM Tris-HCl pH 8.5, 5% acetonitrile, 0.5% Triton X-100
purified protein [6] = substrate: CCCCCCCCCC(=O)Oc1ccc([N+](=O)[O-])cc1; test: purified protein; format: biochemical, Rhodothermus marinus; conditions: 25 mM Tris-HCl pH 8.5, 5% acetonitrile, 0.5% Triton X-100
[7] = gum arabic, universal buffer pH 5-11, 30 °C, or Tris-HCl pH 8.5, 5-50 °C

T2 sequence (Q166H3 entry or part of it, stated change not applied): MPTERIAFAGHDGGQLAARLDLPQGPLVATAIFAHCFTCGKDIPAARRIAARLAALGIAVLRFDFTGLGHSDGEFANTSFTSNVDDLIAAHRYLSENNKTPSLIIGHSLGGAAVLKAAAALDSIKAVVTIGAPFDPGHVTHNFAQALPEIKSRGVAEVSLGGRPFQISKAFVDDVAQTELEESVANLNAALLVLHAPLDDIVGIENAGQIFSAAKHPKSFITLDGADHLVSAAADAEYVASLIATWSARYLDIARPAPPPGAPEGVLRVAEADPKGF
T4 sequence (D6CHH1 entry or part of it, stated change not applied): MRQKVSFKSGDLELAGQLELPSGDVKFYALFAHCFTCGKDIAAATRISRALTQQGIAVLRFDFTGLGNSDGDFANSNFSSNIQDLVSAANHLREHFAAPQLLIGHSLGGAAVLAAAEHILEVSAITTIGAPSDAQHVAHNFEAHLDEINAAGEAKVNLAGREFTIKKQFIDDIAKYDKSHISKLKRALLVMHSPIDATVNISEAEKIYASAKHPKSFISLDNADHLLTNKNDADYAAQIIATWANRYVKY
T6 sequence (Q92Y44 entry or part of it, stated change not applied): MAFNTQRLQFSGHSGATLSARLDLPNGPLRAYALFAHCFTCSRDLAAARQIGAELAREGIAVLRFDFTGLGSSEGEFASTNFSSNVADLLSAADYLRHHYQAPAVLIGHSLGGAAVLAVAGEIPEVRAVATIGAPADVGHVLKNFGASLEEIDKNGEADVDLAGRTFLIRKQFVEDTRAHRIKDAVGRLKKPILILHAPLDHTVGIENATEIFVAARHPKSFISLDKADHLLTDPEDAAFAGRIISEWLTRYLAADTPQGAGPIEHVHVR
T3 sequence (E6X8P4 entry or part of it, stated change not applied): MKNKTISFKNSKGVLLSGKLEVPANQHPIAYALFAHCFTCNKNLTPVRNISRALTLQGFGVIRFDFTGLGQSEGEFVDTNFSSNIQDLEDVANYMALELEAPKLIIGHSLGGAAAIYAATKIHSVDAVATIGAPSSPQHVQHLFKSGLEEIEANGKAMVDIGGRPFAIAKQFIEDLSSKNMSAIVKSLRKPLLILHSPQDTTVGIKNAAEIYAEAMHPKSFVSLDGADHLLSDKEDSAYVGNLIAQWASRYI

O=C(Oc1ccc([N+](=O)[O-])cc1)c1ccccc1 [4NP-benzoate] was tested, and the “30 min end-point 4-nitrophenol release, 410 nm” value (ΔEstLA) was “optimum temperature and pH profiles of each enzyme using p-nitrophenyl benzoate as a substrate”, the “30 min end-point 4-nitrophenol release, 410 nm” value (ΔEstRD; [7]) was “optimum temperature and pH profiles of each enzyme using p-nitrophenyl benzoate as a substrate” and the “30 min end-point 4-nitrophenol release, 410 nm” value (ΔEstCAL) was “optimum temperature and pH profiles of each enzyme using p-nitrophenyl benzoate as a substrate”. The “30 min end-point 4-nitrophenol release, 410 nm” value (ΔEstO; [7]) was “optimum temperature and pH profiles of each enzyme using p-nitrophenyl benzoate as a substrate”, the “30 min end-point 4-nitrophenol release, 410 nm” value (ΔEstCA) was “optimum temperature and pH profiles of each enzyme using p-nitrophenyl benzoate as a substrate” and the “30 min end-point 4-nitrophenol release, 410 nm” value (ΔEstEM; [7]) was “optimum temperature and pH profiles of each enzyme using p-nitrophenyl benzoate as a substrate”.

For CCCCCCCCCC(=O)Oc1ccc([N+](=O)[O-])cc1 [4NP-decanoate], the “30 min end-point 4-nitrophenol release, 410 nm” value (ΔEstRD; Tris-HCl pH 8.5) was “ΔEstEM, ΔEstRD, and ΔEstO showed a preference for decanoate (C10)”, the “30 min end-point 4-nitrophenol release, 410 nm” value (ΔEstO; Tris-HCl pH 8.5) was “ΔEstEM, ΔEstRD, and ΔEstO showed a preference for decanoate (C10)” and the “30 min end-point 4-nitrophenol release, 410 nm” value (ΔEstEM; Tris-HCl pH 8.5) was “ΔEstEM, ΔEstRD, and ΔEstO showed a preference for decanoate (C10)”.

B1: ΔEstRM (Rhodothermus marinus DSM 4252; S72A) (protein)
chain: MQIKTVTFENNRGERLAARLDLPVDTQPVAYALFAHCFTCSKNLKAVTTISRALTTQGYAVLRFDFTGLGEAEGDFSETTFATNFEDLRAACRFLSAQYEPPALLIGHSLGGAAVLAVAGEFPEVKAVATIGAPCDPAHVRHLLRPALDTIKTVGEAVVDLGGRPFRIKKQFLEELERVNLEDQVRTMRRPLLLFHSPTDQIVGIENAACLFQAARHPKSFVSLDQADHLLSNSDDAAFVGEVLGAWARRYVGRR
notes: esterase domain, residues 1-255 of 410, OsmC domain removed; N-terminal His6 (pDEST17, E. coli BL21-AI; crystal text says C-terminal His6); monomer
Work on B1 yielded a Km (purified protein [1]) of 1.05 ± 0.21 mM and a Km (purified protein [2]) of 0.66 ± 0.06 mM.

B2: ΔEstRM (Rhodothermus marinus DSM 4252) (protein)
chain: MQIKTVTFENNRGERLAARLDLPVDTQPVAYALFAHCFTCSKNLKAVTTISRALTTQGYAVLRFDFTGLGESEGDFSETTFATNFEDLRAACRFLSAQYEPPALLIGHSLGGAAVLAVAGEFPEVKAVATIGAPCDPAHVRHLLRPALDTIKTVGEAVVDLGGRPFRIKKQFLEELERVNLEDQVRTMRRPLLLFHSPTDQIVGIENAACLFQAARHPKSFVSLDQADHLLSNSDDAAFVGEVLGAWARRYVGRR
notes: as for B1
Molecule B2 has a Km (purified protein [3]) of 0.981 ± 0.15 mM, a Km (purified protein [4]) of 3.54 ± 0.8 mM and a Km (purified protein [5]) of 0.244 ± 0.012 mM. The Km (purified protein [1]) was 1.07 ± 0.17 mM, the Km (purified protein [2]) was 0.49 ± 0.048 mM and the Km (purified protein [6]) was 0.825 ± 0.13 mM.

B3: EstRM (Rhodothermus marinus DSM 4252) (protein)
chain: MQIKTVTFENNRGERLAARLDLPVDTQPVAYALFAHCFTCSKNLKAVTTISRALTTQGYAVLRFDFTGLGESEGDFSETTFATNFEDLRAACRFLSAQYEPPALLIGHSLGGAAVLAVAGEFPEVKAVATIGAPCDPAHVRHLLRPALDTIKTVGEAVVDLGGRPFRIKKQFLEELERVNLEDQVRTMRRPLLLFHSPTDQIVGIENAACLFQAARHPKSFVSLDQADHLLSNSDDAAFVGEVLGAWARRYVGRRPVPDTYRLDPGEARAVVRTGRAHYRTDIAADGHALVADEPAPLGGTDAGPSPYGYLAAALGACTTITLRLYADRKGWPLEAATAYIYHEKVHLNDCTECAEQGIEQTPGGKIDRFTVELTLEGALDAAQRQRLLEIAGRCPVHRTLKSPVVTRTRLRD
notes: full length, 410 residues, His6 tag, E. coli BL21-AI; monomer
In the case of B3, the Km (purified protein [5]) is reported as 0.292 ± 0.031 mM, the Km (purified protein [1]) is reported as 0.962 ± 0.14 mM and the Km (purified protein [2]) is reported as 0.309 ± 0.07 mM.
